According to patent publication US20100081612A1 (GENERAL HOSPITAL, published 2010):
Where two headings read alike, the source gives them in different places. Where no end group is shown, it is not given here. [ ]: non-standard residue; d: D form. Cha = N[C@@H](CC1CCCCC1)C(=O)O

T1: wild-type human PTHR (human, UniProt Q03431 27-593)
T1 sequence (looked up): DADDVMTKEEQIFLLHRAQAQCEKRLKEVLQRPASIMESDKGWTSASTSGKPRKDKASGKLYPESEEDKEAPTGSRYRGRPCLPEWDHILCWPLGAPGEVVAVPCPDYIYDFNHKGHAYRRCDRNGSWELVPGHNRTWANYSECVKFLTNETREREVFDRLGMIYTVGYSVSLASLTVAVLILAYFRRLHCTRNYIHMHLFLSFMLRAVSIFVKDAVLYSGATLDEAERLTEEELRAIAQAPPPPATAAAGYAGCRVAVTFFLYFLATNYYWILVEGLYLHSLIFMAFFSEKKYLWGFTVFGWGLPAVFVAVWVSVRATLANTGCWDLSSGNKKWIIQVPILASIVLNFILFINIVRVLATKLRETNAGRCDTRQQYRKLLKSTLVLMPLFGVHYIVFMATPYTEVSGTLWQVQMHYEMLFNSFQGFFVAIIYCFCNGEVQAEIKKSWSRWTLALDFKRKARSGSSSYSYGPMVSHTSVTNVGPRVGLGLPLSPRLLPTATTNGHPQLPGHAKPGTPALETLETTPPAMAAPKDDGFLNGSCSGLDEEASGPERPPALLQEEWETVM

B1: human PTH(1-31)NH2 (peptide)
peptide: SVSEIQLMHNLGKHLNSMERVEWLRKKLQDV-NH2
notes: also called hPTH(1-31)NH2; parental PTH(1-31)NH2 peptide
B2: [Ala^1,Arg^19]hPTH(1-31)NH2 Asp^30→Cha (peptide)
peptide: AVSEIQLMHNLGKHLNSMRRVEWLRKKLQ[Cha]V-NH2
modifications: N-terminus assumed
SMILES: CC[C@H](C)[C@H](NC(=O)[C@H](CCC(=O)O)NC(=O)[C@H](CO)NC(=O)[C@@H](NC(=O)[C@H](C)N)C(C)C)C(=O)N[C@@H](CCC(N)=O)C(=O)N[C@@H](CC(C)C)C(=O)N[C@@H](CCSC)C(=O)N[C@@H](Cc1c[nH]cn1)C(=O)N[C@@H](CC(N)=O)C(=O)N[C@@H](CC(C)C)C(=O)NCC(=O)N[C@@H](CCCCN)C(=O)N[C@@H](Cc1c[nH]cn1)C(=O)N[C@@H](CC(C)C)C(=O)N[C@@H](CC(N)=O)C(=O)N[C@@H](CO)C(=O)N[C@@H](CCSC)C(=O)N[C@@H](CCCNC(=N)N)C(=O)N[C@@H](CCCNC(=N)N)C(=O)N[C@H](C(=O)N[C@@H](CCC(=O)O)C(=O)N[C@@H](Cc1c[nH]c2ccccc12)C(=O)N[C@@H](CC(C)C)C(=O)N[C@@H](CCCNC(=N)N)C(=O)N[C@@H](CCCCN)C(=O)N[C@@H](CCCCN)C(=O)N[C@@H](CC(C)C)C(=O)N[C@@H](CCC(N)=O)C(=O)N[C@@H](CC1CCCCC1)C(=O)N[C@H](C(N)=O)C(C)C)C(C)C
B3: [Ala^1,Arg^19]hPTH(1-31)NH2 Lys^26→Cha (peptide)
peptide: AVSEIQLMHNLGKHLNSMRRVEWLR[Cha]KLQDV-NH2
modifications: N-terminus assumed
SMILES: CC[C@H](C)[C@H](NC(=O)[C@H](CCC(=O)O)NC(=O)[C@H](CO)NC(=O)[C@@H](NC(=O)[C@H](C)N)C(C)C)C(=O)N[C@@H](CCC(N)=O)C(=O)N[C@@H](CC(C)C)C(=O)N[C@@H](CCSC)C(=O)N[C@@H](Cc1c[nH]cn1)C(=O)N[C@@H](CC(N)=O)C(=O)N[C@@H](CC(C)C)C(=O)NCC(=O)N[C@@H](CCCCN)C(=O)N[C@@H](Cc1c[nH]cn1)C(=O)N[C@@H](CC(C)C)C(=O)N[C@@H](CC(N)=O)C(=O)N[C@@H](CO)C(=O)N[C@@H](CCSC)C(=O)N[C@@H](CCCNC(=N)N)C(=O)N[C@@H](CCCNC(=N)N)C(=O)N[C@H](C(=O)N[C@@H](CCC(=O)O)C(=O)N[C@@H](Cc1c[nH]c2ccccc12)C(=O)N[C@@H](CC(C)C)C(=O)N[C@@H](CCCNC(=N)N)C(=O)N[C@@H](CC1CCCCC1)C(=O)N[C@@H](CCCCN)C(=O)N[C@@H](CC(C)C)C(=O)N[C@@H](CCC(N)=O)C(=O)N[C@@H](CC(=O)O)C(=O)N[C@H](C(N)=O)C(C)C)C(C)C
B4: [Ala^1,Arg^19]hPTH(1-31)NH2 Val^31→Cha (peptide)
peptide: AVSEIQLMHNLGKHLNSMRRVEWLRKKLQD[Cha]-NH2
modifications: N-terminus assumed
SMILES: CC[C@H](C)[C@H](NC(=O)[C@H](CCC(=O)O)NC(=O)[C@H](CO)NC(=O)[C@@H](NC(=O)[C@H](C)N)C(C)C)C(=O)N[C@@H](CCC(N)=O)C(=O)N[C@@H](CC(C)C)C(=O)N[C@@H](CCSC)C(=O)N[C@@H](Cc1c[nH]cn1)C(=O)N[C@@H](CC(N)=O)C(=O)N[C@@H](CC(C)C)C(=O)NCC(=O)N[C@@H](CCCCN)C(=O)N[C@@H](Cc1c[nH]cn1)C(=O)N[C@@H](CC(C)C)C(=O)N[C@@H](CC(N)=O)C(=O)N[C@@H](CO)C(=O)N[C@@H](CCSC)C(=O)N[C@@H](CCCNC(=N)N)C(=O)N[C@@H](CCCNC(=N)N)C(=O)N[C@H](C(=O)N[C@@H](CCC(=O)O)C(=O)N[C@@H](Cc1c[nH]c2ccccc12)C(=O)N[C@@H](CC(C)C)C(=O)N[C@@H](CCCNC(=N)N)C(=O)N[C@@H](CCCCN)C(=O)N[C@@H](CCCCN)C(=O)N[C@@H](CC(C)C)C(=O)N[C@@H](CCC(N)=O)C(=O)N[C@@H](CC(=O)O)C(=O)N[C@@H](CC1CCCCC1)C(N)=O)C(C)C

Columns and labels:
wild-type human PTHR [1] = biological target: T1, wild-type human PTHR; assay: cell-based or functional assay
wild-type human PTHR [2] = biological target: T1, wild-type human PTHR; assay: competition binding, HKRK-B7 cells, 125I-PTH(1-34) tracer
Protocol: (§1) Receptor binding—Binding to the wild-type human PTHR in intact HKRK-B7 cells and ROS 17/2.8 cells was assessed using ¹²⁵I-PTH(1-34) as a tracer radioligand, as described (Shimizu, M., (2001) Endocrinology 142:3068-3074). In brief, the cells in 24-well plates (about 500,000 cells per well) were incubated in binding buffer containing radioligand (about 100,000 cpm per well) with or without unlabeled peptide ligand (3×10⁻⁹ to 1×10⁻⁵ M) for four hours at 15° C. The binding mixture was then removed by aspiration, the cells were rinsed three times with binding buffer, lysed in 1 M NaOH, and the entire lysate was counted for gamma-irradiation in a gamma counter. Binding to PTHR-delNt in COS-7 cell membranes was assessed in 96-well, vacuum filtration plates (Multiscreen-Durapore HV, […], Millipore Corp., Millford, Mass.) using ¹²⁵I-[Aib^{1,3},M]PTH(1-15)NH₂ as a tracer radioligand, as described (Dean, T., (2006) Mol Endocrinol 20:931-942). In brief, cell membranes (20 μg/well) were incubated in membrane binding buffer containing radioligand (30,000 cpm/well) with or without unlabeled peptide ligand (3×10⁻⁹ to 1×10⁻⁵ M) for 90 minutes at 21° C. The plates were then subject to rapid vacuum filtration, the filters were washed once with buffer, detached from the plate and counted for gamma-irradiation in a gamma counter. Non-specific binding was defined as the binding observed in the presence of 1×10⁻⁶ M PTH(1-31)NH₂ for HKRK-B7 and ROS 17/2.8 cells, and 1×10⁻⁶ M [Aib^{1,3},M]PTH(1-15)NH₂ for PTHR-delNt. Specifically bound radioactivity was calculated as a percentage of the radioactivity specifically bound in the absence of competing ligand.
Alanine-Scan of the PTH(17-31) domain—Each residue in the (17-31) region of PTH(1-31)NH₂ was individually replaced with alanine and the effects of the substitutions on binding to the intact human PTHR stably expressed in HKRK-B7 cells was assessed. Competition binding studies were performed using whole cells and ¹²⁵I-PTH(1-34) (¹²⁵I-[Nle^{8,21},Tyr³⁴]ratPTH(1-34)NH₂) as a tracer radioligand.

PTHR-delNt (human) = PTHR-delNt (human) (UniProt Q03431); assay: competition binding, COS-7 membranes, 125I-[Aib1,3,M]PTH(1-15) tracer
wild-type human PTHR [3] = biological target: T1, wild-type human PTHR; assay: competition binding, HKRK-B7 cells, 125I-PTH(1-34) tracer; remark: listed apart in the source
wild-type human PTHR [4] = biological target: T1, wild-type human PTHR; assay: as above; remark: listed apart in the source
Protocol: as §1
Cyclohexylalanine and glutamate substitutions were introduced into [Ala¹,Arg¹⁹]hPTH(1-31)NH₂. The helical residue values were calculated from [θ]₂₂₂, the mean-residue elipticities observed in the CD spectra at 222 nm. Competition binding studies were performed in intact HKRK-B7 cells stably transfected with the hPTHR using ¹²⁵I-[Nle^{8,21},Tyr³⁴]rPTH(1-34)NH ₂ tracer radioligand, and in membranes prepared from COS-7 cells transiently transfected with hPTHR-delNt and a negative-dominant Gαs using ¹²⁵I-[Aib^{1,3},Nle⁸,Gln¹⁰,Har¹¹,Ala¹²,Trp¹⁴,Tyr¹⁵]rPTH(1-15)NH₂ tracer radioligand. Binding values (nM) are means (+/−s.e.m.) of data from the number of experiments indicated (n).

Binder	inositol phosphate (IP) production, peptide at 1×10^-6 M (wild-type human PTHR [1]) [fold]	IC50 (wild-type human PTHR [2]) [nM]	IC50 (PTHR-delNt (human)) [nM]	fold enhancement in binding affinity vs PTH(1-31)NH2 (wild-type human PTHR [3]) [fold]	fold reduction in binding affinity vs PTH(1-31)NH2 (PTHR-delNt (human)) [fold]	fold change in binding affinity vs PTH(1-31)NH2 (wild-type human PTHR [3]) [fold]	fold change in binding affinity vs [Ala^1,Arg^19]PTH(1-31)NH2 (wild-type human PTHR [3]) [fold]	fold change in binding affinity vs [Ala^1,Arg^19]PTH(1-31)NH2 (PTHR-delNt (human)) [fold]	IC50 (wild-type human PTHR [4]) [nM]
B1	4	68	3670						
SVSEIQLMHNLGKHLNSMERVAWLRKKLQDV-NH2 [PTH(1-31)NH2 Glu^22→Ala]	4	36	5860	≤ 2					
SVSEIQLMHNLGKHLNSMEAVEWLRKKLQDV-NH2 [PTH(1-31)NH2 Arg^20→Ala]	4	> 10000	19300		5				
SVSEIQLMHNLGKHLNSMERVEWLRKKLQAV-NH2 [PTH(1-31)NH2 Asp^30→Ala]	4	63	1540			≤ 2			
SVSEIQLMHNLGKHLNSMERVEWLAKKLQDV-NH2 [PTH(1-31)NH2 Arg^25→Ala]	4	281	7180						
SVSEIQLMHNLGKHLNSMERVEWLRKKLQDA-NH2 [PTH(1-31)NH2 Val^31→Ala]	4	176	4910						
SVSEIQLMHNLGKHLNSMERVEWLRKALQDV-NH2 [PTH(1-31)NH2 Lys^27→Ala]	4	217	7290						
SVSEIQLMHNLGKHLNSMERAEWLRKKLQDV-NH2 [PTH(1-31)NH2 Val^21→Ala]	4	200	5690						
SVSEIQLMHNLGKHLNSMARVEWLRKKLQDV-NH2 [PTH(1-31)NH2 Glu^19→Ala]	4	49	2940	≤ 2					
SVSEIQLMHNLGKHLNSMERVEWLRKKLADV-NH2 [PTH(1-31)NH2 Gln^29→Ala]	4	44	1930	≤ 2					
SVSEIQLMHNLGKHLNSMERVEWLRKKAQDV-NH2 [PTH(1-31)NH2 Leu^28→Ala]	4	290	3460						
B2			305				≤ 6	< 3	54
B3			1870				≤ 6		172
AVSEIQLMHNLGKHLNSMRRVEWL[Cha]KKLQDV-NH2 [[Ala^1,Arg^19]hPTH(1-31)NH2 Arg^25→Cha]			2710				≤ 6		103
B4			466				≤ 6	< 3	66
